# Assay results: article PMC12548936, “Microfluidic‐Assisted Evolution of a Robust NAD^+‐Dependent Enzyme with Improved Isobutanol Tolerance at Elevated Temperatures” (Chemsuschem, 2025)
# Residue numbers refer to the chain shown, from its start. Names and notes keep the numbering of the source.
# B1: HsALDH (HsALDH_Chis; NAD+-dependent aldehyde dehydrogenase / glyceraldehyde dehydrogenase GADH) (Herbaspirillum seropedicae SmR1) (protein)
# chain: MYKDVQLFINGEWTASASGRTIDVINPATEEVIGKIAHADRADLDRALEAASKGFETWRNMSAFERSKIMRRAADLLRERAEEVARLMTMEQGKPLAEAKMETLGAADTIDWFAEEARRTYGRLVPARVPGAYQMVIKEPVGPVAAFTPWNFPLNQVVRKLSAALAAGCSIIVKAPEETPASPAELIRAYADAGVPAGVINLVYGVPAEISEYLIPHPVIKKISFTGSTPVGKQLAALAGQHMKRATMELGGHAPAMVFDDADVDVAAKMLATAKFRNAGQVCVSPTRFLVQKGVFNAFVDKFVTYAEQLKVGNGLEAGITMGPVANKRRIPALEALIDDAVSQGAQLRTGGKRIGNKGYFFQPTVLTNLPLQARAMNEEPFGPLALINSFETLDEVITEANRLPYGLAAYAFAKSAHTKHALAARVESGMLTINHLGLALPELPFGGIKDSGYGSEGGTEAIEAYINTKLVTQLDV
# notes: recombinant, E. coli BL21(DE3); wild type with C-terminal His tag (Chis); models show dimerizing chains
# B2: HsALDH (HsALDH_Chis; NAD+-dependent aldehyde dehydrogenase / glyceraldehyde dehydrogenase GADH) (Herbaspirillum seropedicae SmR1; F147L/I36V/K221R/V158A/V284I) (protein)
# chain: B1 chain with I36V, F147L, V158A, K221R, V284I
# notes: as for B1
# B3: HsALDH (HsALDH_Chis; NAD+-dependent aldehyde dehydrogenase / glyceraldehyde dehydrogenase GADH) (Herbaspirillum seropedicae SmR1; F147L/I36V/V284I) (protein)
# chain: B1 chain with I36V, F147L, V284I
# notes: as for B1
# B4: HsALDH (HsALDH_Chis; NAD+-dependent aldehyde dehydrogenase / glyceraldehyde dehydrogenase GADH) (Herbaspirillum seropedicae SmR1; … (protein)
# chain: B1 chain with I36V, F147L, V158A, K221R, V284I, L432M
# notes: as for B1
# B5: HsALDH (HsALDH_Chis; NAD+-dependent aldehyde dehydrogenase / glyceraldehyde dehydrogenase GADH) (Herbaspirillum seropedicae SmR1; F147L/I36V/K221R/L432M/V284I) (protein)
# chain: B1 chain with I36V, F147L, K221R, V284I, L432M
# notes: as for B1
# Tests used:
# [1] = substrate: NC(=O)c1ccc[n+]([C@@H]2O[C@H](COP(=O)(O)OP(=O)(O)OC[C@H]3O[C@@H](n4cnc5c(N)ncnc54)[C@H](O)[C@@H]3O)[C@@H](O)[C@H]2O)c1; test: photometric ALDH activity assay, Michaelis-Menten fit; type: biochemical, Herbaspirillum seropedicae; settings: co-substrate 5 mM D-glyceraldehyde, 100 mM HEPES, varied: cofactor
# purified protein = substrate: O=C[C@H](O)CO; test: purified protein; settings: co-substrate 5 mM NAD+, 100 mM HEPES
# [2] = wild type, Chis tag, pH 7.5, 30 °C, 30.0 °C
# [3] = FIN3, GS-linker Nhis tag, pH 7.5, 50 °C
# [4] = FIN3, GS-linker Nhis tag, pH 7.5, 50 °C, 50.0 °C
# [5] = StEP template, GS-linker Nhis tag, pH 7.5, 50 °C
# [6] = StEP template, GS-linker Nhis tag, pH 7.5, 50 °C, 50.0 °C
# [7] = FIN5, GS-linker Nhis tag, pH 7.5, 50 °C, 50.0 °C
# [8] = FIN4, GS-linker Nhis tag, pH 7.5, 50 °C
# [9] = FIN4, GS-linker Nhis tag, pH 7.5, 50 °C, 50.0 °C
protein,measurement,setting,value
B1,Km,"[1]; wild type, Chis tag, pH 7.5, 30 °C",590 µM
same,Km,purified protein; [2],13000 ± 400 µM
same,kcat,purified protein; [2],68.6 ± 0.8 s⁻¹
B2,Km,[1]; [3],420 ± 20 µM
same,kcat,[1]; [3],46.9 ± 1.3 s⁻¹
same,Km,purified protein; [4],3300 ± 400 µM
same,kcat,purified protein; [4],46.9 ± 1.3 s⁻¹
B3,Km,[1]; [5],510 ± 30 µM
same,kcat,[1]; [5],66.1 ± 2.0 s⁻¹
same,Km,purified protein; [6],12700 ± 1200 µM
same,kcat,purified protein; [6],66.1 ± 2.0 s⁻¹
B4,Km,"[1]; FIN5, GS-linker Nhis tag, pH 7.5, 50 °C",340 µM
same,Km,purified protein; [7],3500 ± 500 µM
same,kcat,purified protein; [7],54.8 ± 1.9 s⁻¹
B5,Km,[1]; [8],500 ± 60 µM
same,kcat,[1]; [8],46.6 ± 1.4 s⁻¹
same,Km,purified protein; [9],7200 ± 800 µM
same,kcat,purified protein; [9],46.6 ± 1.4 s⁻¹
